We go through two molecules from patent US20110142849A1 (IRM, published 2011).

One assay has as its target T1, S681X (human, UniProt Q8NBP7).
T1 construct: C-terminal truncation mutant, expressed protein; also called Pcsk9 C-term mutant S681X
Nature of the assay: co-immunoprecipitation with 5P20, blot.

In the next assay the target is T2, R682X (human, UniProt Q8NBP7).
T2 construct: C-terminal truncation mutant, expressed protein; also called Pcsk9 C-term mutant R682X
Nature of the assay: co-immunoprecipitation with 5P20, blot.

The next assay deals with T3, H683X (human, UniProt Q8NBP7).
T3 construct: C-terminal truncation mutant, expressed protein; also called Pcsk9 C-term mutant H683X
T3 sequence (Q8NBP7 31-682 limits assumed): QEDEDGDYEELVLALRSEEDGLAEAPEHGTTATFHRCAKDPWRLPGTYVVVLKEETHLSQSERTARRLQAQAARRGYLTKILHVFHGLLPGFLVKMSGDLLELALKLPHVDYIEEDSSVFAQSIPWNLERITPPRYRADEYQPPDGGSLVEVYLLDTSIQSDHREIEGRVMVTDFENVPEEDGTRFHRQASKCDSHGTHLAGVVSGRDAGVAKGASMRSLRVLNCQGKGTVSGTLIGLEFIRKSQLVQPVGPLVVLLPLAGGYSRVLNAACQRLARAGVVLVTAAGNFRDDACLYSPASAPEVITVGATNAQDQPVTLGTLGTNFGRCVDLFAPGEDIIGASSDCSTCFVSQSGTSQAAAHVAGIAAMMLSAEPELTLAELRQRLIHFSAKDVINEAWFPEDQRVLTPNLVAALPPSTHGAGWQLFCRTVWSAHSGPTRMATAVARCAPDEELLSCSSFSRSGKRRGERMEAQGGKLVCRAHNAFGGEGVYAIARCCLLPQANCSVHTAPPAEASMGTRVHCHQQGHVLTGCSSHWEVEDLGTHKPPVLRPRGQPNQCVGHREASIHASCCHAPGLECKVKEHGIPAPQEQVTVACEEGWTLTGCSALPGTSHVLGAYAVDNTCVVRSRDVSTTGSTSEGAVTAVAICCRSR
Nature of the assay: co-immunoprecipitation with 5P20, blot.

For another assay, the target named is T4, A685X (human, UniProt Q8NBP7).
T4 construct: C-terminal truncation mutant, expressed protein; also called C-term mutant A685X
T4 sequence (Q8NBP7 31-684 limits assumed): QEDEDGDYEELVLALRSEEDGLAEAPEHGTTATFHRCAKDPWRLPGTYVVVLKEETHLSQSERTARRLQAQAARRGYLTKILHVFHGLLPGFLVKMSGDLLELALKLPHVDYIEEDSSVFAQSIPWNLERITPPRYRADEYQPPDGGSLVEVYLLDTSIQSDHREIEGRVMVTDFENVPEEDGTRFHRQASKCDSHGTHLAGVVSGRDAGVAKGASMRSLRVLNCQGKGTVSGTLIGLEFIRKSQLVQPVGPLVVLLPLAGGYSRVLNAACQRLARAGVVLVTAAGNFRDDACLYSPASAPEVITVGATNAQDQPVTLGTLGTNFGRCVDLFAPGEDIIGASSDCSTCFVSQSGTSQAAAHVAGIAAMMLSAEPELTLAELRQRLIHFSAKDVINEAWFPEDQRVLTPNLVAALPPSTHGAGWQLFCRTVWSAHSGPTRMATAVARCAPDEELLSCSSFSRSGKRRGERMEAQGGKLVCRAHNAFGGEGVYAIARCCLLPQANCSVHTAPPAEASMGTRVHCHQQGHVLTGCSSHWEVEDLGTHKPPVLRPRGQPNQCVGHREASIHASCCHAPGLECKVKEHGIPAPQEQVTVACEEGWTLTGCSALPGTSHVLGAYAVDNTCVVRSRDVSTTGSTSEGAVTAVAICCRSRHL
The assay is described as follows: co-immunoprecipitation with 5P20, blot.

Assay [1] concerns the target T5, recombinant human Pcsk9 (aa 31-692) with C-terminal his6 tag (human, UniProt Q8NBP7 31-692).
T5 construct: In the TR-FRET assay it carried a fluorophore (hPcsk9-AF); also called hPCSK9; hPcsk9
Nature of the assay: SPR (Biacore S51), antibody captured by anti-mouse Fcγ, Pcsk9 in flow. The method, then: Binding studies of Pcsk9 to the LFU720 (2 μg/mL) were carried out by capturing the mouse antibody with a rabbit anti-mouse Fcγ antibody (Biacore #BR-1005-14) that was previously immobilized onto a Series S CM-5 Biacore sensor chip (certified) (Biacore #BR-1005-30). Covalent binding of the Fcγ capture antibody was done with the ‘Amine Coupling Kit’ (Biacore #BR-1000-50). The capture antibody (rabbit-anti-mouse) was attached to the EDCactivated dextran surface with a 50 μg/mL anti-Fcγ antibody solution in 10 mM sodium acetate, pH 5 (Biacore #BR-1003-51) at a flow rate of 10 μL/min. A range of concentrations of Pcsk9 from 0.5 μM to 7.8 nM (2 fold serial dilution) were flowed over the captured LFU720 chip in PBS plus 100 mM NaCl, 0.005% P20 (Biacore #BR-1000-54). The resulting sensorgrams were analyzed using the Biacore S51 Evaluation Software. Data from all concentrations was fitted globally to a 1:1 Langmuir model.
For orientation: Surface plasmon resonance follows binding to a sensor surface in real time, without labels.

The target in assay [2] is T6, mouse Pcsk9 with C-terminal his6 tag (mouse, UniProt Q80W65 35-694, limits assumed).
T6 construct: also called murine PCSK9
T6 sequence (Q80W65 other isoform, or with tags, fused parts or gaps limits assumed): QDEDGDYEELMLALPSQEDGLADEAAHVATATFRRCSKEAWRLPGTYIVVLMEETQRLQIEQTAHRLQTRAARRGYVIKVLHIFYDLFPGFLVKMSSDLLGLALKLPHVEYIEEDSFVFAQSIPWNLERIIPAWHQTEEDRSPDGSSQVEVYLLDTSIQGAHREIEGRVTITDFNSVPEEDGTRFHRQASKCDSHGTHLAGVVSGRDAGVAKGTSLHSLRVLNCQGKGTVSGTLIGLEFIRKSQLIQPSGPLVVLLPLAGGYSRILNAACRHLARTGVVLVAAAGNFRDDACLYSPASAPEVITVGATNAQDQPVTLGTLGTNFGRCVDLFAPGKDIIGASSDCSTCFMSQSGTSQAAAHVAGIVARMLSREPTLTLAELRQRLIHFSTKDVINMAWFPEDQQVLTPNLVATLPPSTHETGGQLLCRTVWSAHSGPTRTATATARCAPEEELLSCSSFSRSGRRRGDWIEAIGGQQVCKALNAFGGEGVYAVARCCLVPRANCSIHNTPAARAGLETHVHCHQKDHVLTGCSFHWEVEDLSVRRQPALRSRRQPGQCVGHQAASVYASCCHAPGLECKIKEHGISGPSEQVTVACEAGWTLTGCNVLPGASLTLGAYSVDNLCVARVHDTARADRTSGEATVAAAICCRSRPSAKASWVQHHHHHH
Nature of the assay: not told in the legend.

For assay [3], the target named is T7, cynomolgus monkey Pcsk9 with C-terminal his6 tag (cynomolgus monkey).
T7 chain: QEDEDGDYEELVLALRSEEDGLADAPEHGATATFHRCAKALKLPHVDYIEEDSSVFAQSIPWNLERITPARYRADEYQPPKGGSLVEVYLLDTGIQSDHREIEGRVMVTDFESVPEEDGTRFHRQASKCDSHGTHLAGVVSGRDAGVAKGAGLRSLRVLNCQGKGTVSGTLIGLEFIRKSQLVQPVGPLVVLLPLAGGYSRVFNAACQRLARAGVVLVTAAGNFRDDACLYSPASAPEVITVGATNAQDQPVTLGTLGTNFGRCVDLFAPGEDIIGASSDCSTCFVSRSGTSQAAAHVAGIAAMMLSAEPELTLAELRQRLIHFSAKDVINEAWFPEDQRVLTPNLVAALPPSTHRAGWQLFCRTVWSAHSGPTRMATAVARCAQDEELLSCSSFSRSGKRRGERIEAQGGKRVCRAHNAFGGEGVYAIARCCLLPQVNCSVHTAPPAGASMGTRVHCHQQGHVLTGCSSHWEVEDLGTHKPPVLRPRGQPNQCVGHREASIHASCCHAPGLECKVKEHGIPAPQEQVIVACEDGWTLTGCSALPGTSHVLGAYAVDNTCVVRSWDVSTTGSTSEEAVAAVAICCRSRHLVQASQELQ
The assay is described as follows: ELISA on cyno Pcsk9his, antibody 0.03 to 30 ng/ml, Abs 650nm.

T1 sequence (Q8NBP7 31-680 limits assumed): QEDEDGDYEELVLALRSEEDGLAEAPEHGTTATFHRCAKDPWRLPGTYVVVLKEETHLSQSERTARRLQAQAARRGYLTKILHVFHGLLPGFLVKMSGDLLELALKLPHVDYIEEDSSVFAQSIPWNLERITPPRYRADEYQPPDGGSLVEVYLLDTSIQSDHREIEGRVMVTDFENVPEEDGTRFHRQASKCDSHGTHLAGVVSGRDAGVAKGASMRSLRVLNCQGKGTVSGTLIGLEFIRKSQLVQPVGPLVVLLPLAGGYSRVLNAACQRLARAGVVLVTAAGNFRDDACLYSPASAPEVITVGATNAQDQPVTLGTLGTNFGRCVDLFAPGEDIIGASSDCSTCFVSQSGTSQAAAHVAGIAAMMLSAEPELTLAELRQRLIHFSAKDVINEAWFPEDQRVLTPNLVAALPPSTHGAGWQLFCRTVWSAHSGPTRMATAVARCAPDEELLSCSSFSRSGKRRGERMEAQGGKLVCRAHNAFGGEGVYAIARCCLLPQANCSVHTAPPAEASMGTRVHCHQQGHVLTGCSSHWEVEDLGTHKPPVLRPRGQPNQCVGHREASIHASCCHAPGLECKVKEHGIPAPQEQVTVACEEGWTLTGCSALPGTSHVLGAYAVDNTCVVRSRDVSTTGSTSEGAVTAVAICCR
T5 sequence (Q8NBP7 other isoform, or with tags, fused parts or gaps limits assumed, form in doubt): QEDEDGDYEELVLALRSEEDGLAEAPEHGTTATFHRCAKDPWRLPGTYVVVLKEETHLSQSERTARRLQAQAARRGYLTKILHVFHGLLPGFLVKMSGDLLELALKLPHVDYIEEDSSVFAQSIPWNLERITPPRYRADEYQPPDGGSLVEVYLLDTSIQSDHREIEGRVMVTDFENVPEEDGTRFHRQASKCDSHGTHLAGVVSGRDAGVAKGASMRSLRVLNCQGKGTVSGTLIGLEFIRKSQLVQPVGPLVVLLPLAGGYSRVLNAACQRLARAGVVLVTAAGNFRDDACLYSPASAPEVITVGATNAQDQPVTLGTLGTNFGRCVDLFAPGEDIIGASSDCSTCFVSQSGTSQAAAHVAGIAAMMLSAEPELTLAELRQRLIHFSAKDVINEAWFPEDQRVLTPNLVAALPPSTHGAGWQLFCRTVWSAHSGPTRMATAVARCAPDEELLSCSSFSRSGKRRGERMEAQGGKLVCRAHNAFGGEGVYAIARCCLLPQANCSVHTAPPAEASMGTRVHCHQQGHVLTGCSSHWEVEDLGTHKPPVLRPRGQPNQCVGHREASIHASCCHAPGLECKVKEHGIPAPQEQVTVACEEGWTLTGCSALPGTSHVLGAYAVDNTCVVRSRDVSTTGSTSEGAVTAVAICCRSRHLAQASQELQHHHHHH
T2 sequence (Q8NBP7 31-681 limits assumed): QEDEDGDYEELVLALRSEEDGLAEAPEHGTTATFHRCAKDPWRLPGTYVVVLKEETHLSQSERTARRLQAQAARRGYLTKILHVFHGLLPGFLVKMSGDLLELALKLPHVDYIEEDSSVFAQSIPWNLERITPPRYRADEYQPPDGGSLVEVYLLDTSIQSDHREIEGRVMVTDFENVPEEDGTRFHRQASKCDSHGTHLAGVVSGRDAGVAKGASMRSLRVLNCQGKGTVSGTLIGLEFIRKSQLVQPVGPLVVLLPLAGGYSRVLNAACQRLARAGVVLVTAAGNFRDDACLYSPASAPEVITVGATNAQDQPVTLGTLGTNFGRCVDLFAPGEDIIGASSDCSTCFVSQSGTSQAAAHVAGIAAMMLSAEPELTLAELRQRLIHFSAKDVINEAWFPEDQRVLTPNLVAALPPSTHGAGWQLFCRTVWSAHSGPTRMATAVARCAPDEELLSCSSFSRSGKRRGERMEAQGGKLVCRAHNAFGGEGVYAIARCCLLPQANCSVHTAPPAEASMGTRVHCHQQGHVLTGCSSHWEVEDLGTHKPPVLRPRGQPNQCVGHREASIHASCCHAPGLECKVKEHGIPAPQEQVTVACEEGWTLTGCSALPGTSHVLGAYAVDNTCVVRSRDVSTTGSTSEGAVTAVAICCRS

B1: NVP-LFU720 (antibody, V domains shown)
VH: EVQLQQSGAELMKPGASVKLSCTASGFNIKDMYMSWVRQRPEQGLEWIGRIDPANGHTNYDPKFQAKATITTDTSSKTAYLHLSSLTSEDTAVYYCARSYYYYAMDYWGQGTSVTVSS
VL: QIVLTQSPAIMSASPGEKVTMTCSASSSVSYMHWYQQKPGSSPRLWIYLTFNLASGVPARFSGSGSGTSYSLSISSMEAEDAATYYCLQWSSDPPTFGSGTKLEIK
notes: Murine anti-human Pcsk9 IgG1-kappa monoclonal antibody from a hybridoma; also called 5P20; NVP-LFU720-AX-1
A word on the Kd: it is the equilibrium constant for the complex coming apart. In the case of B1, the binding result with S681X, with R682X, in the assay with H683X and in the assay with A685X was “no binding” throughout. Besides, the equilibrium dissociation constant (Kd) in assay [1] is 200 pM.

B2: NVP-LGT211 (antibody, human IgG1, V domains shown)
VH: QVQLVQSGAEVKKPGASVKVSCKASGYTFSTMYMSWVRQAPGQGLEWMGRIDPANEHTNYAQKFQGRVTMTRDTSISTAYMELSRLTSDDTAVYYCARSYYYYAMDYWGQGTLVTVSS
VL: QIVLTQSPATLSVSPGERATLSCRASQSVSYMHWYQQKPGQAPRLLIYGVFRRATGIPDRFSGSGSGTDFTLTIGRLEPEDFAVYYCLQWSSDPPTFGQGTKLEIKR
notes: Silent human IgG1 kappa; also called pSR74 (Vh) + pJG10 (Vk); pSR074 + pJG10
A word on the EC50 (read off the curve): it is the midpoint of the concentration-response curve. With B2, in assay [2], the binding result is recorded as “no binding”. In addition, the “EC50 (read off the curve)” value in assay [3] was around 2 ng/mL.
